# In the DeepSol protein solubility set:
# Experiment: soluble on expression in E. coli; label from the status in PepcDB or PDB records
row,Sequence,soluble on expression in E. coli
1,MHRKISCGINDIKSEFFEAERMNNSVTVEVTRGNLVESRHQGLAVVVDGDGGVLFSAGDIERGIFPRSACKAMQALPLVESGATDAYGFGNRELALACSSHSGEDAHAELAAAMLAKAGRDVDTLECGAHWSSDQKTIIHQARTLEKPTALHNNCSGKHSGFICACCHTGTDPKGYVGYDHPLQRQIRATMESLTGAALGHDNCGVDGCSIPTYAVPLKGLAHGFAKMATGRGLEAERAKASRRLIEACMAEPFYVAGTGRACTKLMQIAPGKIFAKTGAEGVFIAALPNQGIAMAVKCEDGTTRAAEAMVTALLARYFDDGSAEQQALKGMANRQMRNWNGIHVGDISVIGLAAALEHHHHHH,soluble
2,MHRKRERERERERERERERERERERERERERGRDEETSKEKRVTET,soluble
3,MHRSFAAFSILLVAIPQASSFLFGGGCCGAPAVQSCCGSTSWAYAPPQVIGYERIPLYAKVPMPPPPTYVQPPLVGYVSPQQPVAPQGYQQQPQQQFMGQVEQGVEITPDQINSGYQPQQQMGFQSQQQQFSSIPNSGSSNYGADSSFSGSQPAGLVQSVASSAAFEAAGVAPSARRLRKFKN,not soluble
4,MHRSFGNLEFFRFQLSNQCPALQNIELEVPMHIERLDISEFGVEINRTSYAFQVKTDEEIDQTFDVDEFGMIDYDLVVDQNPDTILLDNRDPSNMHLELSYELQLLQNEYDRIEGLNGNDGIEDIEGLAKAREALEKRKTRYQFKYLKLMAREMGIKSQISIAREPLDQHIRFSINSPDRVPLYEEHLAYNKKIHEAQRSLLEKLFVGRPTICVKSLFIDSCFIVCIPKNMQFKVKHLSLSCNNFDEDLNAIRPLLHVSSFPLESIEVYGKWDSLDPILKTCGVLYFPGGCKIEKLLKLQNFHRKVHVNIFDALKQLPPSVKSWLENRQEIGTEYTFDISNEDQIILFLDEMKESNADRIVDEAELHVKLRMDNSTELYISYDPARDNVGRMKMKFQVQ,not soluble
5,MHVAMALADIDRVGGVVIIDPVVHPLTPKHPPNQAERGQIRADRCSTAVFAWLFHEWNATGRSALMRGLTCFAGNTNAQPKHPRRAFRDRLGSTGPRPPRLTVASTPSRQPHHRRILIVTKAKSGSVAPELDTPTDLPPQSVEKISTALNGLLADSFALYLKTKNFHWHISGRHFRDYHLLLDEQSAQILATTDDLAERVRKVGGTTLRSIGHISKLQSIQDNNDDYVPPREMLRELMNDNKKVAAAMRKAHEIVDECKDAASAGLLENFIDETEKRTWFLFEATRQEGANEA,not soluble
6,MHVNKKIIYVSHDAHFHGAQLLSLHTIKALKENFHYSVAIISIRTGILIHDFQKYGPVYCLEEDYPTENKVESLIKKLLSQDYTIAICSTVISGDIVALLAKHNIKVISLIHELPHLIQQYSAEGKARKIAESAHKIVFPSQYVYEKFHTITQLDHQKCHILPQGLFNHNPYKNNIAKARNELRKKHNLPLDSKIILGVGFADHRKGIDLFSLIAYSVRKIHKNIHFIWVGKTDVHFLNTLSQRYTAHFTLVEPTPDIGLYNAGADLYLLTSREDPFPNVVLEALDTKVPVIGFKNAGGFGDVVTEQTGALVDYLNLPMMLEKIYEFIGDEDLRLQKGTFGQELIEKNFNFLHYIYQLLNLLEHNYKKISVIVPNYNYEKYLSERVKSILNQTYPLYELIFLDDASTDNSVSIFEKLLSNENKHHLKIQQIINDKNSGSVFKQ,not soluble
7,MHVVYPGSFDPLTNGHLDVIQRASRLFEKVTVAVLENPSKRGQYLFSAEERLAIIREATAHLANVEAATFSGLLVDFVRRVGAQAIVKGLRAVSDYEYELQMAHLNRQLYPGLETLFILAATRYSFVSSTMVKEIARYGGDVSKLVPPATLRALKAKLGQ,soluble
8,MIAITGATGQLGHYIIESLMKTVPASQIVAIVRNPAKAQALAAQGITVRQADYSDEAALTSALQGVEKLLLISSSEVGQRAPQHRNVINAAKAAGVKFIAYTSLLHADTSPLGLADEHIETEKMLADSGIVYTLLRNGWYSENYLASAPAALEHGVFIGAAGDGKIASATRADYATAAARVISEAGHEGKVYELAGDSAWTLTQLAAELTKQSGKQVTYQNLSEADFAAALKSVGLPDGLADMLADSDVGASKGGLFDNSKTLSKLIGCPTTTLAESVSHLFNVNN,not soluble
9,MIAQLPSELLSLQLPLRIRIGDAQAFDLGPDPQVTMVIRDPSLLTEITHPSLDALGKAYVEKRLDIEGPISQVIGIGDALSEALGEPDGGAPPVRESHDKDTDAEAIHYHYDLSNDFYQLWLDPEMVYSCAYFETGKEDLATAQLAKLRHLCRKLRLQPGEKLLDVGCGWGGLARLAAREFGVEVTGITLSKEQLALGRERVKAEGLEDRVTLKLLDYRDLPRDGRFDKVVSVGMFEHVGHANLGLYFQQLYEAVRPGGLVMNHGITSRYTDGRPVGKGAGDFIDRYVFPHGELPHLSLAVARMSEAGLEVVDVESLRLHYARTLDFWSANLEARLKEAARLVPEETLRIWRLYLAGCAYGFKRGWINL,not soluble
10,MICSLFVDKVNKETYLCAMKQEYISRIRSFNRYYTKILGILNKYYLGSELGLPEVRIIQDVYLHPDRSSKDISNELNMDKGLLSRLLKQLEQKEYIFRKSTEKDNRMGLVNLTEKGCEVYYRLNTAANQSIERIFSHLEDRQLQRLVHCMDSIYKIINSVETGLTVDNNEPIVIRPIEESDNASIASVLRASVEEHGAPKVGTFYDDPHTDRMFQTFNIKGAEYWIVESNGVILGGGGFYPTKGLPHGYAELSKFHFRPELRGRGIGKRLLQFIEQRAVSAGYVYMYIVSYHQFGNAVSMYEKYGYEHIDNALDQSGLYQDAPFHMVKAL,not soluble
11,MIDGIESGLGIAQAFPSVTGEAKPGNLAADGGKFFGELVSKVSELQAQSDTAIKGLVSGESKGLHEVMIAMEKSSISFQFLSQVRNKAVEAYQEVMRMQV,not soluble
12,MIDKHVACERPLTVYLNWRPIVTLMTLGAKPESLALGYLKNQGFISDVSQLESVIVDWGVNSAAVLTREQTADIDKKLSEKTVTSGCGQGTVYGSFMQDLEGIQLPRPSLKQSTLYSLLKNINEYNDTYKNAGAVHGCGVCEADQILAFVEDVGRHNAVDTLAGDMWLAQDRGDNKIFYTTGRLTSEMVIKVAKMGIPVLLSRSGVTQMGLELAQNLGITIIARAKGRHFLVYHGSENLEFDVNTSPSKLEHHHHHH,not soluble
13,MIDLAPLVRRLAGTPLAEWANGLQAQLDTKMSKGHGDLQRWQSALDALPALQPEKVDLTDSFTLETECDGETRTVLRKALLGLSPWRKGPFNVFGVHIDTEWRSDWKWSRVSPHLDLKGKRVLDVGCGNGYYQWRMLGAGADSVIGVDPNWLFFCQFQAMQRYLPDLPAWHLPFALEDLPANLEGFDTVFSMGVLYHRKSPIDHLLALKDCLVKGGELVMETLVIPGDVHQVLVPEDRYAQMRNVWFLPSVPALELWMRRAGFTDVRCVDVSHTTVEEQRSTEWMRFQSLGDYLDPNDHSKTVEGLPAPMRAVIVGRKP,not soluble
14,MIDNFWRELPRPFFVLAPMEDVTDVVFRHVVSEAGRPDVFFTEFTNSDSYCHPEGMKSVRGRLIFTEDEQPMVAHIWGDNPEYFRQMSIGMAELGFKGIDINMGCPVPNVASRGKGSGLILRPDVAAELIQAAKAGGLPVSVKTRLGFKELSEWEDWLTHIFKQDIANLSIHLRTREEMSQVDAHWELIPEIKKLRDRIAPNTLITINGDILDRKMGLELAEKYGIDGVMIGRGIFKNPFAFEKEPREHSSKEHLDLLRLQLDLQDQYAEVLPRSITGLHRFFKIYVKGFPGAAELRNQLMSTKSTDEVRALLDKFEASVDEAQDSETV,not soluble
15,MIDSIRVEGFRGLKELELSSLRRINVIVGRNNSGKSTLLEALSLFLGSSDPGTFGNVLHEILIWRGWYGIQTVDDLFYNGGDSFSISSTGKTLEALNSKHSLEFKLNGEPFYKIDRESIRRLASQAVLLARFSPKENFEFLTPLTFRRFGYAESLYSYAYERKVVKDSIKVLNEAYPEVEGFSPLLKEDNWVLYVETKYGVYPYYLMGEGFKSAMIISFLSSLLRDGVLLIDSAEAFHHPKSLKVMIQTLVRGSEKNNVQVFLTTHSLELLDLMLEMGRDGFVIYMKNVEGRIEVESIEFQRASELRESIGVDLRGFLEHHHHHH,soluble
16,MIEAVKPKVLATRLIPNVAPELAGQLGLAQYQRSIGMITCNIDDSTYVALDEATKKADVAVVYAKSFYAGAAHASGPRSGEVIGILAAANPADVRAGIDACIAYLENEAFFYSHDGGKTAWFPHTISSTGSYLSQIAGIPEGEPLAYLIAPPLEAIYGIDAALKAADVAMKVLYGPPTETNFGGALLTGTQSACRAACEDFQRAVIDVAENGMKY,not soluble
